Assay results published in patent publication US20180066058A1.
pIC50: −log10 of the molar value.

What was measured:
[1] = molecular target: mouse ICOS-mFc (Chimerigen) (mouse) (UniProt Q9WVS0); experiment: HTRF neutralisation of Alexa 647 mouse B7-H2 binding to mouse ICOS-mFc; hamster IgG, run with the IgG1 mAbs
[2] = molecular target: human ICOS-mFc (Chimerigen) (human) (UniProt Q9Y6W8); experiment: HTRF neutralisation of Alexa 647 human B7-H2 binding to human ICOS-mFc; hamster IgG, run with the IgG1 mAbs; mean, n = 4
[3] = molecular target: mouse ICOS-mFc (Chimerigen) (mouse) (UniProt Q9WVS0); experiment: HTRF neutralisation of Alexa 647 mouse B7-H2 binding to mouse ICOS-mFc; hamster IgG, run with the IgG1 mAbs; mean, n = 3
[4] = molecular target: human ICOS-mFc (Chimerigen) (human) (UniProt Q9Y6W8); experiment: HTRF neutralisation of Alexa 647 human B7-H2 binding to human ICOS-mFc; hamster IgG, run with the IgG4.PE mAbs; mean, n = 4
[5] = molecular target: mouse ICOS-mFc (Chimerigen) (mouse) (UniProt Q9WVS0); experiment: HTRF neutralisation of Alexa 647 mouse B7-H2 binding to mouse ICOS-mFc; hamster IgG, run with the IgG4.PE mAbs; mean, n = 3

mouse ICOS-mFc (Chimerigen) (mouse), sequence (Q9WVS0 21-141 limits assumed, change not shown): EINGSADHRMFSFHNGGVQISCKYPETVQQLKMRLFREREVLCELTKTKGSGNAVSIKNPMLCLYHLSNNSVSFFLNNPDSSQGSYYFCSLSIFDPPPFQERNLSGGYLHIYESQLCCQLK
human ICOS-mFc (Chimerigen) (human), sequence (Q9Y6W8 21-140, change not shown): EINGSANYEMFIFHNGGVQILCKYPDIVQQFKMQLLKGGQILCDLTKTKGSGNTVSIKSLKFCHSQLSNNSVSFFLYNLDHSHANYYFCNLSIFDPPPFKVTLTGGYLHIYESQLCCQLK

pIC50 [1]: 9.85 | pIC50 [2]: 8.92 | pIC50 [3]: 10.00 | pIC50 [4]: 8.55 | pIC50 [5]: 9.70
Substance: Anti-ICOS antibody C398.4A (hamster IgG)
